B1: FabZ (β-hydroxyacyl-ACP dehydratase) from Helicobacter pylori (enzyme)
chain: MEQSHQNLQSQFFIEHILQILPHRYPMLLVDRIIELQANKKIVAYKNITFNEDVFNGHFPNKPIFPGVLIVEGMAQTGGFLAFTSLWGFDPEIAKTKIVYFMTIDKVKFRIPVTPGDRLEYHLEVLKHKGMIWQVGGTAQVDGKVVAEAELKAMIAER
modifications: fluorescence dye NT-647 (amine-reaction) in the MST assay only

Assays:
[1] = biological target: FabZ (β-hydroxyacyl-ACP dehydratase) from Helicobacter pylori (Helicobacter pylori) (UniProt O25928); test: SEC-MALS
[2] = biological target: FabZ (β-hydroxyacyl-ACP dehydratase) from Helicobacter pylori (Helicobacter pylori) (UniProt O25928); test: MST
[3] = biological target: the molecule itself; test: SEC-MALS

Row | Molecule | stoichiometry N (holo-ACP per FabZ hexamer) [1] | KD, first phase of the triphasic binding curve [2] [µM] | KD, second phase of the triphasic binding curve [2] [µM] | KD, third phase of the triphasic binding curve [2] [µM] | stoichiometry N [3]
1 | holo-acyl carrier protein (holo-ACP) from Helicobacter pylori (natural protein) | 3 | 0.354 | 16.2 | 297 | –
2 | B1 | – | – | – | – | 6

— paper PMC5143422 (Cell Research, 2016)
